Data: US20230302104A1, “TREATMENT AND/OR PREVENTION OF A DISEASE OR A SYNDROME RELATED TO A VIRUS INFECTION” (priority 2020, published 2023)

Experiments:
[1] = biological target: T1, furin (Homo sapiens, UniProt P09958); conditions: Jean et al. 1998; cited from earlier work
T1 construct: purchased NEB

[2] = system: IFNγ-mediated activation of human microglial HMC3-MHCII^Luc cells; assay: IFNγ-mediated microglial activation, MHCII-driven luciferase; format: cell-based; conditions: MHCII-driven luciferase normalized to cell viability, FIG. 19
[3] = system: SARS-CoV-2 spike pseudotyped lentivirus entry in HeLa cells expressing ACE2 only; format: cell-based; conditions: 10 µM
[4] = biological target: T2, cathepsin B (Homo sapiens, UniProt P07858); format: biochemical; conditions: 45 min
T2 construct: purchased R&D Systems

[5] = biological target: T1, furin; format: biochemical; conditions: 45 min
[6] = system: trypsin; format: biochemical; conditions: 45 min
[7] = biological target: T3, elastase (ELA1) from pig pancreas (Sus scrofa, UniProt P00772); format: biochemical
T3 construct: elastase (ELA1) from pig pancreas 0.25U/mL; purchased molecular probes (Sigma-Aldrich) E-12056; host or cells: pig pancreas

[8] = system: MERS-CoV pseudovirus entry in Caco2 human colorectal adenocarcinoma cells; format: cell-based
[9] = biological target: T4, PC1 (Homo sapiens, UniProt P29120); format: biochemical; conditions: 45 min
T4 construct: purchased R&D Systems
T4 sequence (P29120 111-753): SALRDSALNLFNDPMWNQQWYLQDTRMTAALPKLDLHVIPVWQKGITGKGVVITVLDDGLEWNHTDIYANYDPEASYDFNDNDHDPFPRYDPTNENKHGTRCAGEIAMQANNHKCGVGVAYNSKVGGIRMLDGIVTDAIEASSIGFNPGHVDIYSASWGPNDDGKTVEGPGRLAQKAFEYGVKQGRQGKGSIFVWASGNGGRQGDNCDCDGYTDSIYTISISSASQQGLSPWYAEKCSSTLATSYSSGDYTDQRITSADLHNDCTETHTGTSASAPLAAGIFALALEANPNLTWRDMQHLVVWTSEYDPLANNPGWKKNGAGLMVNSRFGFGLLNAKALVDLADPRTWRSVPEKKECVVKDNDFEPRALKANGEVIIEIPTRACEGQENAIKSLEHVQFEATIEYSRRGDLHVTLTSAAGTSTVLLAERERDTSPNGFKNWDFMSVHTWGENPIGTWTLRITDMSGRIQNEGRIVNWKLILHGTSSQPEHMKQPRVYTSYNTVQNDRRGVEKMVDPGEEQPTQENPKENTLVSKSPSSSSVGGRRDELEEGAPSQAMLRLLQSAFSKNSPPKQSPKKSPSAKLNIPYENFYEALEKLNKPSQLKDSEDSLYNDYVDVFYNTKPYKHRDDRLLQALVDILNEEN

[10] = biological target: T5, TMPRSS2 (Homo sapiens, UniProt O15393); format: biochemical; conditions: 45 min
T5 construct: purchased creative biomart

[11] = biological target: T6, matriptase (Homo sapiens, UniProt Q9Y5Y6); format: biochemical; conditions: 45 min
T6 construct: purchased R&D Systems
T6 sequence (Q9Y5Y6 1-855): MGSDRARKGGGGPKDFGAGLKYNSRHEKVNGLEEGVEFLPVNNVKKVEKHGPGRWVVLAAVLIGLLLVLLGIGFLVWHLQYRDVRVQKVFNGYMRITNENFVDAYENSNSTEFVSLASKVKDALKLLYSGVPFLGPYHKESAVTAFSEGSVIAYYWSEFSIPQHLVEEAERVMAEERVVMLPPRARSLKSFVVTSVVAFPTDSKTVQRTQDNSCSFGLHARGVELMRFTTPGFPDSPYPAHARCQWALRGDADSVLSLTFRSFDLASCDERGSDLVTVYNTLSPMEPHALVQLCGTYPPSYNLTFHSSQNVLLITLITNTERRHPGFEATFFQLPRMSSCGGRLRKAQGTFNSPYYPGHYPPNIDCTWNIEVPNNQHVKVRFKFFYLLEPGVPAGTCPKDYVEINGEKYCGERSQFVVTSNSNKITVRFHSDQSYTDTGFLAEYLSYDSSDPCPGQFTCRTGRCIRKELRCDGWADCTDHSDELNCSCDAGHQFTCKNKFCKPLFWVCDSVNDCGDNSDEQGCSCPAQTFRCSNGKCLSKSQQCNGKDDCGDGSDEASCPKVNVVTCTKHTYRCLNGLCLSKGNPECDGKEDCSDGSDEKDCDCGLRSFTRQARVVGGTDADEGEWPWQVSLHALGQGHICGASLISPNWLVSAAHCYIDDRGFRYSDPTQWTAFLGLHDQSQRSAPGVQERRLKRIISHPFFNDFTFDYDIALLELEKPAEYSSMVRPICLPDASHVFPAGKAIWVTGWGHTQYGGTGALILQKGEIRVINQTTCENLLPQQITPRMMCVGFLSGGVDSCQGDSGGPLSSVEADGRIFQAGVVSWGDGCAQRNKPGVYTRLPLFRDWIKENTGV

[12] = biological target: T7, cathepsin L (Homo sapiens, UniProt P07711); format: biochemical; conditions: 45 min
T7 construct: purchased R&D Systems

[13] = system: ACE2/SARS-CoV-2 spike mediated cell fusion of HeLa cells; format: cell-based, human; conditions: 24 h

T1 sequence (P09958 108-794): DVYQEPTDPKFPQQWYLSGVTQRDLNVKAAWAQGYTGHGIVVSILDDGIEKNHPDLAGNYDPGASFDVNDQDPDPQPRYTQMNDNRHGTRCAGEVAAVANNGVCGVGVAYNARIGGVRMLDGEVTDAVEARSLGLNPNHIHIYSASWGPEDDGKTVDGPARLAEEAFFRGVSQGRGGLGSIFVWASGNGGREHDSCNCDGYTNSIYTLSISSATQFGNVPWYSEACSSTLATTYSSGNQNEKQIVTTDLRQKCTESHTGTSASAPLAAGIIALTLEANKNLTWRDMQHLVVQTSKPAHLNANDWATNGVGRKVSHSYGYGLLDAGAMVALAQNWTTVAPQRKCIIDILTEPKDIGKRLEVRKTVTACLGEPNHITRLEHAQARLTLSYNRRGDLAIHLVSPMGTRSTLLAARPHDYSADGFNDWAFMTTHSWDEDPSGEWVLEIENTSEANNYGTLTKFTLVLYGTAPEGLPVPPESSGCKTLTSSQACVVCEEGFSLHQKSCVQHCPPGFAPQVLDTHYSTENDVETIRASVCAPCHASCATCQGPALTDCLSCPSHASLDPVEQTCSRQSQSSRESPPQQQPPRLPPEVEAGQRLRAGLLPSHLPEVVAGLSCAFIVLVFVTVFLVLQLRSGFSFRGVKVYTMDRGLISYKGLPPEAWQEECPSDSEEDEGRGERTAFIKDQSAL
T3 sequence (P00772 27-266): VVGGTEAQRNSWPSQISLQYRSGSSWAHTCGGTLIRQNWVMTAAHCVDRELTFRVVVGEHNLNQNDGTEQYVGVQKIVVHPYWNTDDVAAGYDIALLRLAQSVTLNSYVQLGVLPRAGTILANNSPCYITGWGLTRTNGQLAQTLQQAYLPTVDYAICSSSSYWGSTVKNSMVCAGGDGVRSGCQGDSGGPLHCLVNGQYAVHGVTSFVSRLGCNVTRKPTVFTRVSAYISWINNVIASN
T7 sequence (P07711 114-333): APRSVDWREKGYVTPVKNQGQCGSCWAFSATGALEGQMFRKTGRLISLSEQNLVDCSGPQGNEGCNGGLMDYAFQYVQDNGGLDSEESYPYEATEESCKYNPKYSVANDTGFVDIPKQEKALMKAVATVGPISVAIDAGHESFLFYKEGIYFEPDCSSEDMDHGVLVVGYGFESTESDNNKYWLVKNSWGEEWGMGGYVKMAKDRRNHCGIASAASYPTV
T5 sequence (O15393 whole entry): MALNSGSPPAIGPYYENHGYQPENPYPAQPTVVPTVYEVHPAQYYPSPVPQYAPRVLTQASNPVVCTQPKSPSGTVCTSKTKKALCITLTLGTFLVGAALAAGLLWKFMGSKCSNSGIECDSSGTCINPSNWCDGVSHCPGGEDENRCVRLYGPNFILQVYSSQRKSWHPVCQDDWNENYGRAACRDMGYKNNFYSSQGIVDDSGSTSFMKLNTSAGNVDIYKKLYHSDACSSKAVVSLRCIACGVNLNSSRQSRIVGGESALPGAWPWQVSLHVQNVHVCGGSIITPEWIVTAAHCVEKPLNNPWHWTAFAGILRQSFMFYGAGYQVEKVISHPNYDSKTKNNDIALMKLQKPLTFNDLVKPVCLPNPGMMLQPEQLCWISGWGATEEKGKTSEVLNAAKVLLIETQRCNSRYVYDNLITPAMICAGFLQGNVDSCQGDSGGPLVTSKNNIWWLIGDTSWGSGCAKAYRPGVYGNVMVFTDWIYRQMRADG

Alpha1-antitrypsin Portland
activity on furin [1]: strong and selective activity

plasma derived AAT
IFNγ-mediated microglial activation (inflammation) [2]: Effect is observed | inhibitory effect on SARS-CoV-2 pseudoviral cell-entry [3]: up to 25%

rhAAT
cathepsin B protease activity [4]: inhibits cathepsin B protease activity | furin protease activity [5]: inhibits furin protease activity | trypsin protease activity [6]: inhibits trypsin protease activity | elastase protease activity [7]: inhibits elastase protease activity | MERS-CoV pseudovirus entry [8]: inhibits viral entry of several viruses | IFNγ-mediated microglial activation (inflammation) [2]: reduces inflammation | IFNγ-mediated microglial activation (inflammation) ([2]; listed as recombinant AAT): Effect is observed | PC1 protease activity [9]: inhibits PC1 protease activity | TMPRSS2 protease activity [10]: inhibits TMPRSS2 protease activity | matriptase protease activity [11]: inhibits matriptase protease activity | cathepsin L protease activity [12]: inhibits cathepsin L protease activity | inhibitory effect on SARS-CoV-2 spike mediated cell fusion [13]: more effectively than plasma derived AAT
